From paper PMC6598382 come the findings set out here.

Substrate in data set [1]: C/C=C/C=C/C(=O)c1cc(C)c(O)c(C)c1O
As to the kind of experiment: steady-state Michaelis-Menten kinetics. Type of data set: biochemical, Penicillium rubens. The note with it: native substrate.

Substrate in data set [2]: C/C=C/COC(=O)c1cc(C)c(O)c(C)c1O
As to the kind of experiment: steady-state Michaelis-Menten kinetics. Type of data set: biochemical, Penicillium rubens.

B1: SorbC (Penicillium rubens Wisconsin 54-1255) (protein)
chain: MTRSANSPFEVAIVGGGITGLALAVGLLKRNVSFTIYERAENFGELGVGITFTPNAQRAMEALDPCVLQSFTNVASAPSGGTINFVDGVREQGSEDPRTSTAALLFQLHVKGGYKACRRCDFVDQIVQHIPKDCVQYRKWLDSIETDHESGRAVLKFRDGEIAHADVVIGCDGIRSQVRASMFGTDELCPRAQYSHQLGYRGMVPLAQATAVLGPEKTSSAVLHTGPGAFVLTIPLAEVHAMHIEAFIMDKEEWPEVQTSSDSKRYVLPATRNEATKAFAEFGPTVRSAVSMFPEKLEKWAVFDMLEAPVPTFAKGRVCLAGDAAHASTPNQGGGAGFGIEDALVLAEVLAVLAEAPNVSGIVASEALAVYSEVRYERSQWLVRSSRRTGELCTWKDRDWGLAAEELSRDIISRSHQLWDHDTAGMVSDALAILGERVRGADTAF
Take B1: the Km turned out to be 38.6 ± 1.7 µM in data set [1] and 17.3 ± 0.7 µM in data set [2].
